According to patent US20250154277A1 (CONCEPT TO MEDICINE BIOTECH, published 2025):
Values joined by “and” are separate entries in the source; they are usually repeats but may differ in a detail not shown here. Identical values can stand only once.

T1: human 5T4-His protein (human, UniProt Q13641 32-355)
T1 construct: also called recombinant 5T4 protein (human 5T4-his tag); human 5T4 protein; not shown: His tag
T1 sequence (looked up): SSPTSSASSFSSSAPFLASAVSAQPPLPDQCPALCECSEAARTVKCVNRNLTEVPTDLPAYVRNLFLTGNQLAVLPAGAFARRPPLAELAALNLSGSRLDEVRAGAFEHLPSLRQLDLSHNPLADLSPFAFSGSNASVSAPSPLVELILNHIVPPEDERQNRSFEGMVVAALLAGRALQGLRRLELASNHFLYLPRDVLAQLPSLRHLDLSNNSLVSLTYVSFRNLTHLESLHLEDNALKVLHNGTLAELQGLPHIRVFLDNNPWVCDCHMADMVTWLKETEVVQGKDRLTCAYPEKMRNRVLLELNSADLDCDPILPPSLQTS

T2: cynomolgus 5T4 protein (cynomolgus monkey, UniProt Q4R8Y9 35-355, limits assumed)
T2 construct: Coated protein in ELISA; the screening step names a cyno 5T4-His protein; also called cyno 5T4; recombinant cyno 5T4-His protein
T2 sequence (looked up): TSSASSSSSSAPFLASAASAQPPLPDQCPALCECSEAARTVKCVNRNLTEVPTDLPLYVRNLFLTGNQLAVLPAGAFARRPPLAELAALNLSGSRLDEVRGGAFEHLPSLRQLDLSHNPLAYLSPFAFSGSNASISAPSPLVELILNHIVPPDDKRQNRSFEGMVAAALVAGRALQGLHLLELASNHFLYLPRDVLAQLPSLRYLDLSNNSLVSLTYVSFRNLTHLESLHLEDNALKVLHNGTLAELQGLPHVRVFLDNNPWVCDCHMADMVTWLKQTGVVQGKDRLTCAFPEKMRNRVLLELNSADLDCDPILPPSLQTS

B1: 159D5 chimeric antibody (antibody, V domains shown)
VH: DVQLVESGGGLVQPGGSRKLSCTASGFTFSNFGMHWVRQAPETGLEWVAYISSGSSTFYYADSVKGRFTISRDNPKNTLFLQMTSLRSEDTAMYFCARSPAYYRYGLDYWGQGTTLTVSS
VL: DIVLTQSPASLAVSLGQRATISCRASQSVSSSTFSYMHWYQQKPGQPPKLLIKSSSNLESGVPARFSGSGSGTDFTLNIHPVEEEDTATYYCQHSWEIPYTFGGGTKLEIK
notes: chimeric mAb
B2: 267B5 chimeric antibody (antibody, V domains shown)
VH: DVQFQESGPGLVKPSQSLSLTCSVTGYSITSSYYWNWIRQFPGDKLEWMGYISYDGSNNYNPSLKNRISITRDTSKKQFFLKLNSVTTEDTATYYCARSWDGGYAMDNWGQGTSVTVSS
VL: SIVMTQTPKFLLVSAGDRVTITCKASQSVSNDVAWYQQKPGQSPKLLIYFASNRYTGVPDRFTGSGYGTVFTFTISTVQADDLAVYFCQQDYTSPWTFGGGTRLEIK
notes: chimeric mAb

Key:
[1] = molecular target: T1, human 5T4-His protein; experiment: SPR Biacore, Protein A capture
Procedure, shortened: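 Antibodies captured on a Protein A chip on Biacore T200; serial dilutions of His-tagged human 5T4 injected 2-3 min at 30 μl/min, dissociation 360-1000 s.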

[2] = molecular target: T1, human 5T4-His protein; experiment: competitive ELISA, coated human 5T4, vs 159D5-biotin
[3] = molecular target: T1, human 5T4-His protein; experiment: as above; remark: listed apart in the source
[4] = molecular target: T1, human 5T4-His protein; experiment: ELISA, coated antigen
[5] = molecular target: T2, cynomolgus 5T4 protein; experiment: ELISA, coated antigen
[6] = molecular target: T1, human 5T4-His protein; experiment: ELISA, coated 5T4-His
Procedure: To evaluate the binding activity of 159D5 humanized antibodies to human 5T4, the 159D5 chimeric antibody along with 159D5 humanized mAbs were subjected to ELISA test.
Briefly, microtiter plates were coated with human 5T4-His protein at 1 μg/ml in PBS, 100 μl/well at 4° C. overnight, then blocked with 150 μl/well of 10% BSA. Serial dilutions of antibodies were added to each well and incubated for 1 hour at 37° C. The plates were washed with PBS/Tween and then incubated with Goat Anti-Human IgG-HRP for 30 mins at 37° C. After washing, the plates were developed with TMB substrate and analyzed by spectrophotometer at OD 450 nm. As shown in FIG. 14 and Table 12, most of the humanized antibodies bound to human 5T4 with high activity.

[7] = molecular target: T1, human 5T4-His protein; experiment: SPR Biacore, Protein A capture, 50 nM 5T4-His
Procedure: The binding of the 159D5 humanized antibodies to recombinant 5T4 protein (human 5T4-his tag) was tested with Biacore using a capture method. The mAbs were captured using Protein A chip. 50 nM of human 5T4-his tag protein was injected over captured antibody for 3 mins at a flow rate of 30 μl/min. The antigen was allowed to dissociate for 600 s. All the experiments were carried out on a Biacore T200. Data analysis was carried out using the Biacore T200 evaluation software.

[8] = molecular target: T1, human 5T4-His protein; experiment: competitive ELISA, coated human 5T4, vs 159D5-biotin; remark: listed apart in the source
[9] = molecular target: T1, human 5T4-His protein; experiment: competitive ELISA, coated human 5T4, vs 267B5-biotin
[10] = molecular target: T1, human 5T4-His protein; experiment: as above; remark: listed apart in the source

| Binder | Kd [1] [nM] | koff [1] [s⁻¹] | kon [1] [M⁻¹ s⁻¹] | IC50 (read off the curve) [2] [nM] | IC50 (read off the curve) [3] [nM] | EC50 [4] | EC50 [5] | EC50 [6] [nM] | Kd [7] [nM] | koff [7] [s⁻¹] | kon [7] [M⁻¹ s⁻¹] | IC50 (read off the curve) [8] [nM] | IC50 (read off the curve) [9] [nM] | IC50 (read off the curve) [10] [nM] |
| --- | --- | --- | --- | --- | --- | --- | --- | --- | --- | --- | --- | --- | --- | --- |
| B1 | 0.206 | 0.00024 | 1.16e+06 | ~5 | ~5 | 0.24 nM and 0.2 nM and 0.39 nM | 0.18 nM and 0.19 nM and 0.2 nM and 0.11 nM | 0.13 | 0.618 | 0.000204 | 330000 | ~4 | – | – |
| B2 | 1.62 | 0.000255 | 158000 | – | – | 0.31 nM | 0.17 nM | – | – | – | – | – | ~10 | ~5 |
